Assay results as given in the supplement of paper PMC10567573.

B1: ZBED3 (parent)
chain: GPGFHAGTSALWRHLRSAHRRELE
B2: KLHL14 (parent)
chain: CAVLDDSIYLVGGYSWSMGAYKSS

Variants of: B1
Experiment: protein stability index of a GFP-peptide fusion (GPS, HEK-293T) (PSI 1-6); higher = more stable
Settings: c terminus: a fixed tail appended
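Note: lentivirally expressed fusions sorted by FACS into six bins by GFP to DsRed ratio, PSI derived from sequencing read proportions per bin multiplied by bin number.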

Protein stability index of substitutions, site by site:
G7: Y 2.68; I 2.31; K 2.01; L 1.45; Q 2.47; R 2; W 1.52; T 2.21; M 2.35; P 2.23; E 5.51; D 3.25; C 1.75; A 2.62; S 2.73; N 2.69; V 2.19
G1: L 2.52; V 2.9; H 3.15; Y 2.1; R 3.02; F 1.96; D 3.87; N 3.45; C 2.65; A 2.7; W 2.7; K 3.07; S 1.79; I 2.76; Q 3.51; E 3.11; M 3.18; P 3.04; T 3.33
T8: P 2.88; V 1.84; K 2.5; S 2.89; N 2.91; D 3.67; I 2.09; H 2.4; M 2.37; A 1.75; L 2.52; C 2.51; R 2.37; E 2.48; G 2.26; Y 2.37; W 2.23; F 1.64; Q 1.98
A10: R 3.4; Q 2.43; D 3.22; L 1.88; E 4.86; C 2.32; M 2.02; N 2.67; W 2.38; Y 2.31; F 2.33; P 2.28; V 2.6; T 3.08; H 2.63; G 2.67; I 1.85; S 2.52; K 2
S9: E 3.25; V 1.92; K 2.68; H 2.53; N 2.68; R 3.03; W 2.05; M 2.44; L 3.28; Y 3.23; I 1.74; T 3.06; C 2; D 2.99; A 2.11; F 2.23; Q 2.96; P 2.08; G 1.71
P2: M 2.53; F 1.89; C 1.37; G 3.2; A 3.48; V 2.77; L 2.5; H 3.39; S 2.92; Q 4.32; Y 2.54; W 2.18; I 2.8; D 3.38; E 3.53; N 3.5; K 3.06; T 3.01
F4: H 3.16; N 2.84; W 2.22; C 3.19; M 2.68; D 3; I 2.99; K 3.62; Y 3.37; A 3.15; V 3; L 3.3; R 4.36; Q 4.02; P 3.59; S 3.39; G 3.01; T 3.75; E 2.83
L11: C 2.41; A 1.71; D 3.33
H5: G 2.62; R 3.02; E 3.63; K 2.67; S 2.95; Q 3.44; W 2.76; I 2.15; V 2.75; N 3.06; L 2.24; Y 2.89; P 4.37; A 3.33; D 3.69; M 2.82; T 3.16; C 3.46; F 2.88
A6: W 1.82; S 2.14; D 3.52; P 2.77; H 2.12; V 1.85; I 2.06; C 1.65; Y 2.59; E 3.04; Q 2.59; L 2.24; T 2.33; F 1.83; K 2.3; R 3.08; G 2.54; M 2.58; N 2
G3: R 3.96; M 3.16; F 1.74; E 3.67; D 3.13; H 3.25; S 2.9; Y 3.36; I 2.5; A 3.22; P 3.38; T 3.75; K 3.26; V 3.1; L 3.26; N 3.56; Q 2.45; C 3.23; W 1.96

Variants of: B2
Experiment: as above
Settings: c terminus: a fixed tail appended

Protein stability index of substitutions, site by site:
Y14: L 1.86; P 1.91; H 1.83; G 1.2; D 2.23; T 1.44; V 2.19; C 2.15; K 1.73; F 2.66; E 1.69; Q 2.03; W 2.93
S17: H 1.98; Y 2.9; N 1.53; A 3.94; V 1.96; T 2.27
G12: Y 1.55; E 3.21; L 2.9; M 2.24; R 2.52
S15: P 2.77; A 3.83; Y 1.87; Q 2.44
G19: H 3.16; Q 1.62; C 3; S 2.83; E 1.22
S7: R 1.84; E 1.99; T 1.52; I 2.49
L10: I 1.68; Q 1.23; G 2.23; A 1.55; H 1.59; D 1.94; S 1.83; T 1.96; M 1.95; K 2.05; F 3.26
M18: Y 2.48; F 2.48; D 2.09; H 2.5; T 2.15; W 3.11; L 2.48
Y21: P 2.44; N 2.25; E 1.45; I 2.99; M 2.65; K 2.14; A 2.91
A2: M 3.27; I 2.13; W 2.5; E 2.37; S 1.59; R 1.3
S24: N 2.53; R 1.75; I 3.41; E 2.32; Y 3.04; F 2.96; G 1.65; Q 2.2; D 1.06
I8: W 1.8; R 1.64; A 2.44; Y 2.96
W16: K 1.94; N 1.89; G 1.95; R 1.78; Q 1.8; A 1.78; E 2.53
Y9: A 1.66; M 3.37; G 1.28; Q 1.62; S 1.51; H 2.3
A20: W 2.87; D 2.27; P 1.33; N 3.33
S23: Y 1.98; I 2.8; T 2.72; L 5.74
D6: W 3.66; Y 1.86; V 1.97; P 2.97; S 2.61; Q 1.95
D5: M 4.24; V 2.29; A 2.24; W 3.27
V3: Y 1.57; N 2.57; P 2.58; G 1.48; Q 2.39; L 2.21; A 2.03
V11: N 2.2; I 3.25; C 1.91; E 2.33
G13: D 1.98; H 3.56; F 2.97; N 2.32; P 1.73
C1: L 2.09; Q 1.73; I 2.83; R 2.03
L4: V 1.79; W 1.6; N 3.26; M 2.96; Y 2.19; R 2.33; C 1.78
K22: C 1.85; Q 1.44; N 2.69; L 3.43; T 2.27
